Test results published in publication PMC9482650, “Quantitative fragmentomics allow affinity mapping of interactomes” (Nature Communications, 2022).

T1: GRIP1_5, Q9Y3R0
T1 sequence (Q9Y3R0 568-668, limits assumed, looked up): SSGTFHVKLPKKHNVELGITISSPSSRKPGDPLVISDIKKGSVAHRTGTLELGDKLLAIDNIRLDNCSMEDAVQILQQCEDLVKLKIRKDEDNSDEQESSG

T2: APBA2_1, Q99767
T2 sequence (Q99767 563-664, limits assumed, looked up): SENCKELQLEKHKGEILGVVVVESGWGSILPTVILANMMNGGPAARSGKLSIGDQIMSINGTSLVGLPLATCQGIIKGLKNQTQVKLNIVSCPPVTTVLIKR

T3: NHERF3_1, Q5T2W1
T3 sequence (Q5T2W1 4-100, limits assumed, looked up): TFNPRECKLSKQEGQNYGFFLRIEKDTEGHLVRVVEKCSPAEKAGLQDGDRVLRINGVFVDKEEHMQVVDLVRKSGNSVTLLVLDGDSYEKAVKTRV

T4: SHANK1, Q9Y566
T4 sequence (Q9Y566 658-767, limits assumed, looked up): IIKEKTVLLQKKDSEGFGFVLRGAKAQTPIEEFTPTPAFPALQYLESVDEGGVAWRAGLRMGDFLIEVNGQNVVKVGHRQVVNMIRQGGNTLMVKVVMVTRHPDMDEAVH

T5: SNTG1, Q9NSN8
T5 sequence (Q9NSN8 52-150, limits assumed, looked up): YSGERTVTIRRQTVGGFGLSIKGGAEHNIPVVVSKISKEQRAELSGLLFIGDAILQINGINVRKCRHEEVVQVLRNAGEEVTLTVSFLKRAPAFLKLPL

T6: TJP3_3, O95049
T6 sequence (O95049 375-456, limits assumed, looked up): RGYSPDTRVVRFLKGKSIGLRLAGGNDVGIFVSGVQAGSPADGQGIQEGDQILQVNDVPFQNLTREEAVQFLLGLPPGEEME

T7: SNTB1, Q13884
T7 sequence (Q13884 107-205, limits assumed, looked up): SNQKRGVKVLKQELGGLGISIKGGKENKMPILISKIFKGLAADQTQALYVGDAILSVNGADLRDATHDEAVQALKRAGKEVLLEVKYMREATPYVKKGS

T8: APBA3_1, O96018
T8 sequence (O96018 389-490, limits assumed, looked up): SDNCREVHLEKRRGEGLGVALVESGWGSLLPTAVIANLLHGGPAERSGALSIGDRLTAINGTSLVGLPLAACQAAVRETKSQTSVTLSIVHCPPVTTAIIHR

T9: MPDZ_5, O75970
T9 sequence (O75970 695-796, limits assumed, looked up): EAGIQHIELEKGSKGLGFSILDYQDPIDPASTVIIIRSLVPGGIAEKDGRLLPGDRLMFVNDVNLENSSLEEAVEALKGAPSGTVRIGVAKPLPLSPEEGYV

T10: APBA1_1, Q02410
T10 sequence (Q02410 651-752, limits assumed, looked up): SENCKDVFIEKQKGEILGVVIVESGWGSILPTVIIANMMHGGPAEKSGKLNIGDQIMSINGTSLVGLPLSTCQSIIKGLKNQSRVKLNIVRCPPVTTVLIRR

T11: GRIP1_2, Q9Y3R0
T11 sequence (Q9Y3R0 145-248, limits assumed, looked up): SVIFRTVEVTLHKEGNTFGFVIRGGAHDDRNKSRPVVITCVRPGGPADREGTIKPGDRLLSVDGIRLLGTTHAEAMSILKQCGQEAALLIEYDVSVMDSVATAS

T12: SNTG2, Q9NY99
T12 sequence (Q9NY99 68-166, limits assumed, looked up): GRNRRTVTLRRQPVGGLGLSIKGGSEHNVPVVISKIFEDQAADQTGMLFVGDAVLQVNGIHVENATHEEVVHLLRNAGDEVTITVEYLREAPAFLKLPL


These binders were tested against T1, GRIP1_5, Q9Y3R0 (assay: holdup assay). Conditions: plain residues with an end cap or a label only (N-terminal biotin on a linker: ado-ado).
Set-up: key: below the threshold = too weak to quantify, mostly under pKd 3.1 to 4

Binder | pKd
SRPRPDDLEI [GJA1, P17302] | below the threshold
NVYGTESVKI [GRIA3, P42263] | below the threshold

These binders were tested against Inadl_9, Q8NI35 (assay: holdup assay). Conditions: plain residues with an end cap or a label only (N-terminal biotin on a linker: ado-ado).
Sequence of Inadl_9, Q8NI35 (Q8NI35 1530-1615): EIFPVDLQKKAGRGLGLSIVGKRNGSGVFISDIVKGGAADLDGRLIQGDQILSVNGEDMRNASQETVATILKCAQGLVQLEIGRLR
Set-up: key: below the threshold = too weak to quantify, mostly under pKd 3.1 to 4

Binder | pKd
SRPRPDDLEI [GJA1, P17302] | below the threshold
NVYGTESVKI [GRIA3, P42263] | below the threshold

What follows are binders tested against T2, APBA2_1, Q99767 (assay: holdup assay). Conditions: plain residues with an end cap or a label only (N-terminal biotin on a linker: ado-ado).
Set-up: key: below the threshold = too weak to quantify, mostly under pKd 3.1 to 4

Binder | pKd
SRPRPDDLEI [GJA1, P17302] | below the threshold
NVYGTESVKI [GRIA3, P42263] | below the threshold

These binders were tested against T3, NHERF3_1, Q5T2W1 (assay: holdup assay). Conditions: plain residues with an end cap or a label only (N-terminal biotin on a linker: ado-ado).
Set-up: key: below the threshold = too weak to quantify, mostly under pKd 3.1 to 4

Binder | pKd
SRPRPDDLEI [GJA1, P17302] | below the threshold
NVYGTESVKI [GRIA3, P42263] | below the threshold

These binders were tested against DLG1_3, Q12959 (assay: holdup assay). Conditions: plain residues with an end cap or a label only (N-terminal biotin on a linker: ado-ado).
Sequence of DLG1_3, Q12959 (Q12959 457-571): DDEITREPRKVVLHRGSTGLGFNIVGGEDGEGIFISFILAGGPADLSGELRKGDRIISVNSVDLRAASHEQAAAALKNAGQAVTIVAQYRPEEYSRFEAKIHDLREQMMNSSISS
Set-up: key: below the threshold = too weak to quantify, mostly under pKd 3.1 to 4

Binder | pKd
SRPRPDDLEI [GJA1, P17302] | below the threshold
NVYGTESVKI [GRIA3, P42263] | below the threshold

What follows are binders tested against GORASP1, Q9BQQ3 (assay: holdup assay). Conditions: plain residues with an end cap or a label only (N-terminal biotin on a linker: ado-ado).
Sequence of GORASP1, Q9BQQ3 (Q9BQQ3 1-208): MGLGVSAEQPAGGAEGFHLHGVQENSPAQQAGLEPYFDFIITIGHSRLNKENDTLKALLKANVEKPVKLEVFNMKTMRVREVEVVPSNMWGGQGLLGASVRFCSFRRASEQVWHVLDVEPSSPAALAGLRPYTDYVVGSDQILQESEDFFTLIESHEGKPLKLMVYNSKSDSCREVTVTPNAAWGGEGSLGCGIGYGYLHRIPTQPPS
Set-up: key: below the threshold = too weak to quantify, mostly under pKd 3.1 to 4

Binder | pKd
SRPRPDDLEI [GJA1, P17302] | below the threshold
NVYGTESVKI [GRIA3, P42263] | below the threshold

The binders below were run against AHNAK1, Q09666 (assay: holdup assay). Conditions: plain residues with an end cap or a label only (N-terminal biotin on a linker: ado-ado).
Sequence of AHNAK1, Q09666 (Q09666 4-100): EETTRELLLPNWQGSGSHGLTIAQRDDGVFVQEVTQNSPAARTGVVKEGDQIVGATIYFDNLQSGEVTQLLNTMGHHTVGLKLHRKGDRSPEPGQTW
Set-up: key: below the threshold = too weak to quantify, mostly under pKd 3.1 to 4

Binder | pKd
SRPRPDDLEI [GJA1, P17302] | below the threshold
NVYGTESVKI [GRIA3, P42263] | below the threshold

The binders below were run against GOPC, Q9HD26 (assay: holdup assay). Conditions: plain residues with an end cap or a label only (N-terminal biotin on a linker: ado-ado).
Set-up: key: below the threshold = too weak to quantify, mostly under pKd 3.1 to 4

Binder | pKd
SRPRPDDLEI [GJA1, P17302] | below the threshold
NVYGTESVKI [GRIA3, P42263] | below the threshold

What follows are binders tested against T4, SHANK1, Q9Y566 (assay: holdup assay). Conditions: plain residues with an end cap or a label only (N-terminal biotin on a linker: ado-ado).
Set-up: key: below the threshold = too weak to quantify, mostly under pKd 3.1 to 4

Binder | pKd
SRPRPDDLEI [GJA1, P17302] | below the threshold
NVYGTESVKI [GRIA3, P42263] | below the threshold

Each binder was assayed against Inadl_8, Q8NI35 (assay: holdup assay). Conditions: plain residues with an end cap or a label only (N-terminal biotin on a linker: ado-ado).
Sequence of Inadl_8, Q8NI35 (Q8NI35 1425-1530): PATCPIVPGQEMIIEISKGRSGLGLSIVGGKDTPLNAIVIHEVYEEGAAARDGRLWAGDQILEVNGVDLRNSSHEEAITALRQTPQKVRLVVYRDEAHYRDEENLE
Set-up: key: below the threshold = too weak to quantify, mostly under pKd 3.1 to 4

Binder | pKd
SRPRPDDLEI [GJA1, P17302] | below the threshold
NVYGTESVKI [GRIA3, P42263] | below the threshold

The binders below were run against T5, SNTG1, Q9NSN8 (assay: holdup assay). Conditions: plain residues with an end cap or a label only (N-terminal biotin on a linker: ado-ado).
Set-up: key: below the threshold = too weak to quantify, mostly under pKd 3.1 to 4

Binder | pKd
SRPRPDDLEI [GJA1, P17302] | below the threshold
NVYGTESVKI [GRIA3, P42263] | below the threshold

What follows are binders tested against T6, TJP3_3, O95049 (assay: holdup assay). Conditions: plain residues with an end cap or a label only (N-terminal biotin on a linker: ado-ado).
Set-up: key: below the threshold = too weak to quantify, mostly under pKd 3.1 to 4

Binder | pKd
SRPRPDDLEI [GJA1, P17302] | below the threshold
NVYGTESVKI [GRIA3, P42263] | below the threshold

These binders were tested against T7, SNTB1, Q13884 (assay: holdup assay). Conditions: plain residues with an end cap or a label only (N-terminal biotin on a linker: ado-ado).
Set-up: key: below the threshold = too weak to quantify, mostly under pKd 3.1 to 4

Binder | pKd
SRPRPDDLEI [GJA1, P17302] | below the threshold
NVYGTESVKI [GRIA3, P42263] | below the threshold

These binders were tested against GRID2IP_2, A4D2P6 (assay: holdup assay). Conditions: plain residues with an end cap or a label only (N-terminal biotin on a linker: ado-ado).
Sequence of GRID2IP_2, A4D2P6 (A4D2P6 272-370): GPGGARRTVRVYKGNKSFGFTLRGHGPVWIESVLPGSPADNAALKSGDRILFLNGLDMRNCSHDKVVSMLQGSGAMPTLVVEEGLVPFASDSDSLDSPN
Set-up: key: below the threshold = too weak to quantify, mostly under pKd 3.1 to 4

Binder | pKd
SRPRPDDLEI [GJA1, P17302] | below the threshold
NVYGTESVKI [GRIA3, P42263] | below the threshold

What follows are binders tested against MAGI1_1, Q96QZ7 (assay: holdup assay). Conditions: plain residues with an end cap or a label only (N-terminal biotin on a linker: ado-ado).
Sequence of MAGI1_1, Q96QZ7 (Q96QZ7 1-106): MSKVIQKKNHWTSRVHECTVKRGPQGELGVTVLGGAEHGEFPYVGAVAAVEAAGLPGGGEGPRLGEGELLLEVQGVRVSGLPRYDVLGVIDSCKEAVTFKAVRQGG
Set-up: key: below the threshold = too weak to quantify, mostly under pKd 3.1 to 4

Binder | pKd
SRPRPDDLEI [GJA1, P17302] | below the threshold
NVYGTESVKI [GRIA3, P42263] | below the threshold

What follows are binders tested against T8, APBA3_1, O96018 (assay: holdup assay). Conditions: plain residues with an end cap or a label only (N-terminal biotin on a linker: ado-ado).
Set-up: key: below the threshold = too weak to quantify, mostly under pKd 3.1 to 4

Binder | pKd
SRPRPDDLEI [GJA1, P17302] | below the threshold
NVYGTESVKI [GRIA3, P42263] | below the threshold

Each binder was assayed against T9, MPDZ_5, O75970 (assay: holdup assay). Conditions: plain residues with an end cap or a label only (N-terminal biotin on a linker: ado-ado).
Set-up: key: below the threshold = too weak to quantify, mostly under pKd 3.1 to 4

Binder | pKd
SRPRPDDLEI [GJA1, P17302] | below the threshold
NVYGTESVKI [GRIA3, P42263] | below the threshold

These binders were tested against GRIP2_7, Q9C0E4 (assay: holdup assay). Conditions: plain residues with an end cap or a label only (N-terminal biotin on a linker: ado-ado).
Sequence of GRIP2_7, Q9C0E4 (Q9C0E4 934-1023): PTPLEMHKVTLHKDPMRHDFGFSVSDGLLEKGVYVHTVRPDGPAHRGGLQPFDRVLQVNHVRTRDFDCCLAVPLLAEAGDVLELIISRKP
Set-up: key: below the threshold = too weak to quantify, mostly under pKd 3.1 to 4

Binder | pKd
SRPRPDDLEI [GJA1, P17302] | below the threshold
NVYGTESVKI [GRIA3, P42263] | below the threshold

Each binder was assayed against PARD3_3, Q8TEW0 (assay: holdup assay). Conditions: plain residues with an end cap or a label only (N-terminal biotin on a linker: ado-ado).
Sequence of PARD3_3, Q8TEW0 (Q8TEW0 582-685): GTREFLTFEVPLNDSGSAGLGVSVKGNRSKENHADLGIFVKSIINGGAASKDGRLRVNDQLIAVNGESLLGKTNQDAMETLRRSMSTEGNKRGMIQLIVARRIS
Set-up: key: below the threshold = too weak to quantify, mostly under pKd 3.1 to 4

Binder | pKd
SRPRPDDLEI [GJA1, P17302] | 3.74
NVYGTESVKI [GRIA3, P42263] | 3.73

These binders were tested against GRIP2_6, Q9C0E4 (assay: holdup assay). Conditions: plain residues with an end cap or a label only (N-terminal biotin on a linker: ado-ado).
Sequence of GRIP2_6, Q9C0E4 (Q9C0E4 648-740): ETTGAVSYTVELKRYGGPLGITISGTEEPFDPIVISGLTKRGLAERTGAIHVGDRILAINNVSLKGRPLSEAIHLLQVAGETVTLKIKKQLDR
Set-up: key: below the threshold = too weak to quantify, mostly under pKd 3.1 to 4

Binder | pKd
SRPRPDDLEI [GJA1, P17302] | below the threshold
NVYGTESVKI [GRIA3, P42263] | below the threshold

The binders below were run against T10, APBA1_1, Q02410 (assay: holdup assay). Conditions: plain residues with an end cap or a label only (N-terminal biotin on a linker: ado-ado).
Set-up: key: below the threshold = too weak to quantify, mostly under pKd 3.1 to 4

Binder | pKd
SRPRPDDLEI [GJA1, P17302] | below the threshold
NVYGTESVKI [GRIA3, P42263] | below the threshold

The binders below were run against T11, GRIP1_2, Q9Y3R0 (assay: holdup assay). Conditions: plain residues with an end cap or a label only (N-terminal biotin on a linker: ado-ado).
Set-up: key: below the threshold = too weak to quantify, mostly under pKd 3.1 to 4

Binder | pKd
SRPRPDDLEI [GJA1, P17302] | below the threshold
NVYGTESVKI [GRIA3, P42263] | below the threshold

The binders below were run against DLG2_3, Q15700 (assay: holdup assay). Conditions: plain residues with an end cap or a label only (N-terminal biotin on a linker: ado-ado).
Set-up: key: below the threshold = too weak to quantify, mostly under pKd 3.1 to 4

Binder | pKd
SRPRPDDLEI [GJA1, P17302] | below the threshold
NVYGTESVKI [GRIA3, P42263] | below the threshold

The binders below were run against T12, SNTG2, Q9NY99 (assay: holdup assay). Conditions: plain residues with an end cap or a label only (N-terminal biotin on a linker: ado-ado).
Set-up: key: below the threshold = too weak to quantify, mostly under pKd 3.1 to 4

Binder | pKd
SRPRPDDLEI [GJA1, P17302] | below the threshold
NVYGTESVKI [GRIA3, P42263] | below the threshold
